# Assay results: US20110135662A1 (UCB, published 2011)
# Where no end group is shown, it is not given here.
# T1: B11-CPMTEEFKN (cyclic) (human, also: biotinylated in screening assay, position not given here)
# T1 construct: Human Nav1.7 peptide; also called Nav1.7 peptide B11
# T1 peptide: cyclo(CPMTEEFKN)
# T2: B11.7 Cyclo[biotinyl-PEG-cysPMTEEFKN] (not fully specified; cyclic; biotinyl-PEG on the cysteine)
# T2 construct: also called B11.7 peptide; Nav 1.7 peptide
# T2 peptide: CPMTEEFKN
# T3: B11.1 Cyclo[biotinyl-PEG-cysEHYPMTDHFNN] (not fully specified (N-terminus, bridges); printed as Cyclo[biotinyl-PEG-cysEHYPMTDHFNN]; also: biotinyl-PEG on the cysteine)
# T3 construct: also called Nav 1.1 E1 peptide
# T3 peptide: CEHYPMTDHFNN
# T4: B11.4 Cyclo[biotinyl-PEG-cysEHYPMTEHFDN] (not fully specified (N-terminus, bridges); printed as Cyclo[biotinyl-PEG-cysEHYPMTEHFDN]; also: biotinyl-PEG on the cysteine)
# T4 construct: also called Nav 1.4 E1 peptide
# T4 peptide: CEHYPMTEHFDN
# T5: B11.5 Cyclo[biotinyl-PEG-cysEHYNMTSEFEE] (not fully specified; cyclic; biotinyl-PEG on the cysteine)
# T5 construct: also called Nav 1.5 E1 peptide
# T5 peptide: CEHYNMTSEFEE
# T6: B11.9 Cyclo[biotinyl-PEG-cysEHHKMEASFEK] (not fully specified; cyclic; biotinyl-PEG on the cysteine)
# T6 construct: also called Nav 1.9 E1 peptide
# T6 peptide: CEHHKMEASFEK
# T7: B11.2/3 Cyclo[biotinyl-PEG-cysEHYPMTEQFSS] (not fully specified (N-terminus, bridges); printed as Cyclo[biotinyl-PEG-cysEHYPMTEQFSS]; also: biotinyl-PEG on the cysteine)
# T7 construct: also called Nav 1.2 and 1.3 E1 peptide
# T7 peptide: CEHYPMTEQFSS
# T8: B11.8 Cyclo[biotinyl-PEG-cysEHHGMSPTFEA] (not fully specified; cyclic; biotinyl-PEG on the cysteine)
# T8 construct: also called Nav 1.8 E1 peptide
# T8 peptide: CEHHGMSPTFEA
# T9: B11.6 Cyclo[biotinyl-PEG-cysEHHPMTPQFEH] (not fully specified; cyclic; biotinyl-PEG on the cysteine)
# T9 construct: also called Nav 1.6 E1 peptide
# T9 peptide: CEHHPMTPQFEH
# T10: A32-CTLESIMNTLESEEDFRKY (cyclic) (human, also: biotinylated in screening assay, position not given here)
# T10 construct: Human Nav1.7 peptide; also called Nav1.7 peptide A32
# T10 peptide: cyclo(CTLESIMNTLESEEDFRKY)
# B1: CA167_01080 (antibody, rabbit IgG1, V domains shown)
# VH: QSLEESGGRLVTPETPLTLTCTASGIDLSKWPMTWVRQAPGKGLEWIGIIGRSGSTNYASWAKGRFTISKTSTTVDLKMTSPTTEDTATYFCARGGSYYDLWGQGTLVTVS
# VL: AQVLTQTASPVSAAVGNTVTITCQSSQSVWKNNDLSWYQQKLGQPPKLLIYYASTLASGVSSRFKASGSGTQFTLTISDVQCDDAGTYYCVGSYDCSSADCNAFGGGTKVVVK
# notes: Rabbit monoclonal from rabbit 3824
# B2: CA167_00983 (antibody, rabbit IgG1, V domains shown)
# VH: QSVEESGGRLVTPGTPLTLTCTVSGFSLSNYAMSWVRQAPGKGLEWIGIIGKSGSTAYASWAKGRFTISRTSTTVDLEITSPTTEDTATYFCVRFVLLWGPGTLVTVS
# VL: AQVLTQTASPVSAAVGGTVTINCQSSQSVYKNNDLAWYQQKPGQPPKLLIYYASTLASGVSSRFKGSGSGTEFTLTISDAQCDDAATYYCLGSYDCSSADCNAFGGGTKVVVK
# notes: as for B1
# B3: CA167_00932 (antibody, rabbit IgG1, V domains shown)
# VH: QSLEESGGRLVTPGTPLTLTCTVSGFSLSRYWMSWVRQAPGKGLEWIGNIGGGSGSTLYAPWAKGRSTISKTSTTVDLKITSPTTEDTATYFCGRYVKNGGGYRLDLWGPGTLVTVS
# VL: AAVLTQTPSSVSAAVGGTVTIKCQSSQSVYNNNEFSWYQQKPGQPPKLLIYDASKLASGVPSRFSGSGSGTQFTLTISGVQCDDVATYYCLGGYNDDTNRWAFGGGTEVVVE
# notes: Rabbit monoclonal from rabbit 3822; also called antibody 932
# How the values were obtained:
# [1] = target: T1, B11-CPMTEEFKN (cyclic); test: peptide specificity; bead-based FMAT screen on biotinylated peptide
# Description: (§1) SLAM was performed using substantially the methods described in Tickle et al. 2009 (JALA, Vol. 14, number 5, p303-307). Briefly, SLAM cultures were set up using rabbit splenocytes or PBMC and supernatants were first screened for their ability to bind biotinylated peptide in a bead-based assay in the FMAT. […] Positives from this screen were then put through a negative screen to identify non-specific antibodies.
# [2] = target: T2, B11.7 Cyclo[biotinyl-PEG-cysPMTEEFKN]; test: peptide binding ELISA (FIG. 3K legend)
# Description: (§2) Nunc 96 well plates were coated overnight at 4° C. in 5 ug/ml Streptavidin (Jackson 016-000-114) 100 ul/well in carbonate coating buffer. Plates were washed four times in PBS/tween and 200 ul/well of block (1% BSA in PBS) was added for 1 hour at RT. Plates were washed four times in PBS/tween and 100 ul/well of biotinylated peptide at 5 ug/ml was added for 1 hour at RT. Plates were washed four times in PBS/tween and 100 ul/well of antibody added (starting at 10 ug/ml diluting in block in half logs down the plate) for 1 hour at RT. Plates were washed four times in PBS/tween and […] goat anti rabbit Fc HRP (Jackson 111-036-046) added for 1 hour at RT. Plates were washed four times in PBS/tween and 100 ul/well TMB (3,3′,5,5′ Tetramethylbenzidine) solution added. 50 ul/well of NaF was added to stop reaction and absorbance read at 630 nm.
# [3] = target: human Nav1.7 channel (type IX voltage-gated sodium channel alpha subunit) (human, UniProt Q15858 1-1988); test: cell-based or functional assay
# [4] = target: T3, B11.1 Cyclo[biotinyl-PEG-cysEHYPMTDHFNN]; test: peptide binding ELISA, biotinylated peptide on streptavidin
# Description: as §2
# [5] = target: T4, B11.4 Cyclo[biotinyl-PEG-cysEHYPMTEHFDN]; test: as above
# Description: as §2
# [6] = target: T5, B11.5 Cyclo[biotinyl-PEG-cysEHYNMTSEFEE]; test: as above
# Description: as §2
# [7] = target: T6, B11.9 Cyclo[biotinyl-PEG-cysEHHKMEASFEK]; test: as above
# Description: as §2
# [8] = target: T7, B11.2/3 …; test: as above
# Description: as §2
# [9] = target: T8, B11.8 Cyclo[biotinyl-PEG-cysEHHGMSPTFEA]; test: as above
# Description: as §2
# [10] = target: T9, B11.6 Cyclo[biotinyl-PEG-cysEHHPMTPQFEH]; test: as above
# Description: as §2
# [11] = target: T2, B11.7 Cyclo[biotinyl-PEG-cysPMTEEFKN]; test: peptide binding ELISA (FIG. 3J legend)
# Description: as §2
# [12] = target: T10, A32-CTLESIMNTLESEEDFRKY (cyclic); test: peptide specificity; bead-based FMAT screen on biotinylated peptide
# Description: as §1
Binder,binding result [1],binding result [2],"Nav1.7 inhibition (%) at 25 µg/ml, automated patch clamp, HEK cells [3] [%]",binding result [4],binding result [5],binding result [6],binding result [7],binding result [8],binding result [9],binding result [10],binding result [11],binding result [12]
B1,binds,binds,46,no binding (tested: antibody starting at 10 ug/ml),no binding (tested: antibody starting at 10 ug/ml),no binding (tested: antibody starting at 10 ug/ml),no binding (tested: antibody starting at 10 ug/ml),no binding (tested: antibody starting at 10 ug/ml),no binding (tested: antibody starting at 10 ug/ml),no binding (tested: antibody starting at 10 ug/ml),–,–
B2,binds,–,41,no binding (tested: antibody starting at 10 ug/ml),no binding (tested: antibody starting at 10 ug/ml),no binding (tested: antibody starting at 10 ug/ml),no binding (tested: antibody starting at 10 ug/ml),no binding (tested: antibody starting at 10 ug/ml),no binding (tested: antibody starting at 10 ug/ml),no binding (tested: antibody starting at 10 ug/ml),binds,–
B3,–,–,27,–,–,–,–,–,–,–,–,binds
